Data from paper PMC7641504.

Biological target: double mutant (E87C, C312T) AmtB protein complex from E. coli (E. coli) (UniProt P69681)
Experiment: native MS

double mutant (E87C, C312T) AmtB protein complex from E. coli (from UniProt P69681 23-428) (natural protein)
stoichiometry N: 3
